The values that follow come from patent US20130115678.

Numbering of substitutions follows the chain as printed.

Common to all, as to test: cleavage_in_vitro
Data set [1] has as its target T1, PvuII (Proteus vulgaris) (UniProt P23657).
T1 sequence: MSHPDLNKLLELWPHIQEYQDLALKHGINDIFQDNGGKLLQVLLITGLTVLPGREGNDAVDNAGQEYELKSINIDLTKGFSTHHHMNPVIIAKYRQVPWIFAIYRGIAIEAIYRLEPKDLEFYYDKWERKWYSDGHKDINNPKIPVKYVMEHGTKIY
The following applies: NEB4, 37 C, Mg2+; FI NEB1-3: 250, 16, 8.

The target in data set [2] is T2, PvuII-HF T46G (Proteus vulgaris) (UniProt P23657).
T2 sequence: T1 sequence with T46G
The note with it: NEB4, 37 C, Mg2+; FI NEB1-3: >=250, >=2000, >=250.

Data set [3] deals with T3, AvrII (Anabaena variabilis).
T3 sequence: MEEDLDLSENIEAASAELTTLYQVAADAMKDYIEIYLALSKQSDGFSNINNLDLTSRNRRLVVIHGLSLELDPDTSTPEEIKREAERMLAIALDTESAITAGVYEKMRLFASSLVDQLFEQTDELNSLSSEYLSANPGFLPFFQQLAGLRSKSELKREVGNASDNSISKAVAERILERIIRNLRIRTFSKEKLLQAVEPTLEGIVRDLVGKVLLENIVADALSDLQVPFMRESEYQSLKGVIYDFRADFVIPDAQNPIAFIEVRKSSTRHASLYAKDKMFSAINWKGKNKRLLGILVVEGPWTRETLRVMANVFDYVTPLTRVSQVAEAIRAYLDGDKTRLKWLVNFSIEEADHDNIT
The following applies: NEB4, 37 C, Mg2+; FI NEB1-3: 64, 8, 32.

Data set [4] relates to T4, AvrII-HF Y104F (Anabaena variabilis).
T4 sequence: T3 sequence with Y104F
The following applies: NEB4, 37 C, Mg2+; FI NEB1-3: 500, >=500, >=16.

For data set [5], the system named is T5, BspQI-HF K279P/R388F (Bacillus sphaericus).
T5 sequence: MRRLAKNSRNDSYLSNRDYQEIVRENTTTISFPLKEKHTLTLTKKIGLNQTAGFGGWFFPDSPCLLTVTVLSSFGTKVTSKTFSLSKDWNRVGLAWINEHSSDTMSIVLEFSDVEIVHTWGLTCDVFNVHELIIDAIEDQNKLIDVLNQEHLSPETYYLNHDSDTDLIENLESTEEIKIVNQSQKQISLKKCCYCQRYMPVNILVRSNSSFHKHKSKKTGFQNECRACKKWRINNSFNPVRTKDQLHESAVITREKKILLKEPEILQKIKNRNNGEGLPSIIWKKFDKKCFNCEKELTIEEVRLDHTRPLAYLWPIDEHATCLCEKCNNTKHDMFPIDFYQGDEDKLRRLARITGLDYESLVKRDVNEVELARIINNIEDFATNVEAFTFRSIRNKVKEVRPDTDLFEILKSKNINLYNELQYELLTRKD
The note with it: NEB4, 50 C, Mg2+; FI NEB1-3: >=1000, >=1000, >=64.

Data set [6] concerns the target T6, SalI-HF R107A (Streptomyces albus G) (UniProt Q53608).
T6 sequence: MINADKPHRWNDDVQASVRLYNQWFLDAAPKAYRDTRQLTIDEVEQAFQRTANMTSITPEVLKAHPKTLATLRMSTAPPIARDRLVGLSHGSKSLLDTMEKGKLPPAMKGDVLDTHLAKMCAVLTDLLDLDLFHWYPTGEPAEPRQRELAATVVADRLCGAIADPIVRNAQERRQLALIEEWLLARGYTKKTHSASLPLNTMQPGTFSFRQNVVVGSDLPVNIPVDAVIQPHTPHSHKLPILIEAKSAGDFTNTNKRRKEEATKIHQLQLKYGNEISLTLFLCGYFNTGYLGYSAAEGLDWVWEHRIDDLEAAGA
The following applies: NEB4, 37 C, Mg2+; FI NEB1-3: >=8000, >=64000, >=4000.

Data set [7] deals with T7, SalI (Streptomyces albus G) (UniProt Q53608).
T7 sequence: T6 sequence with A107R
The note with it: NEB4, 37 C, Mg2+; FI NEB1-3: 8, 1, 32.

For pBR322, the activity (fidelity index) stood at 0.25 in data set [1] and 500 in data set [2].
Take T7 DNA: the activity (fidelity index) in data set [3] is 32; in data set [4], over 1000.
Regarding pUC19, in data set [5], the activity (fidelity index) was over 4000.
For HindIII-digested lambda DNA, the values for the activity (fidelity index) in data set [6] and in data set [7] were over 32000 and 1, respectively.
